This is an account of results in patent US20260232827A1 (Zymeworks, published 2026).

Assay [1] has as its target T1, mouse NaPi2b (mouse, UniProt Q9DBP0 1-697).
T1 construct: Transfected into HEK293-6e cells (clone CL_#13476); also called Ms NaPi2b
T1 sequence: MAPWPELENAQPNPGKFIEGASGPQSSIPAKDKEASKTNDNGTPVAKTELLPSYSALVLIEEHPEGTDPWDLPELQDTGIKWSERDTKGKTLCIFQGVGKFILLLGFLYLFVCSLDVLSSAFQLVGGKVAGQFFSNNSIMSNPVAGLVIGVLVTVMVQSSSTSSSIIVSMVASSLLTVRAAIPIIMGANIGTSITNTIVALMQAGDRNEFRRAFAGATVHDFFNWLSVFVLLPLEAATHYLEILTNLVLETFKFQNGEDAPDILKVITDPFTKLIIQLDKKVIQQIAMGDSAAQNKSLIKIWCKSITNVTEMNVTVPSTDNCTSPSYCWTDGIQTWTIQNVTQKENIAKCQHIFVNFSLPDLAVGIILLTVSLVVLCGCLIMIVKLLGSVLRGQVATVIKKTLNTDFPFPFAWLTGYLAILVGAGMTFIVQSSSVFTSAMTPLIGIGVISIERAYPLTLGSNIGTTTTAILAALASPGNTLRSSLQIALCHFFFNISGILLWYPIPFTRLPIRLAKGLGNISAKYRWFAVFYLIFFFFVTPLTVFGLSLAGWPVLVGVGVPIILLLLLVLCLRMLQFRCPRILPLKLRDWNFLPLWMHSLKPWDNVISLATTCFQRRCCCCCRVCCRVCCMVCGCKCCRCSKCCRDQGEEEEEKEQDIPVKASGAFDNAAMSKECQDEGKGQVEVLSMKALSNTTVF
Put plainly: flow cytometry on HEK293-6e cells transfected with mouse NaPi2b, apparent Kd.
Experimental: (§1) Following transfection, cells were seeded at 50,000 cells/well in conical-bottom 96-well plates and treated with test antibody or antibody-drug conjugate for 24 hours at 4° C. to prevent internalization. […] Following incubation and washing, fluorescence was detected by flow cytometry on a BD LSRFortessa™ Cell Analyzer (BD Biosciences, Franklin Lake, NJ) with 1,000 minimum events collected per well.

For assay [2], the target named is T2, human sodium-dependent phosphate transporter 2B (NaPi2b) (human, UniProt O95436 1-690).
T2 construct: Endogenous on tumor cell lines (IGROV-1, OVCAR-3, HCC-78, TOV-21G, NCI-H441) or transfected into HEK293-6e cells with pTT5-huNaPi2b (CL_#13432); also called Hu NaPi2b; hNaPi2b
T2 sequence: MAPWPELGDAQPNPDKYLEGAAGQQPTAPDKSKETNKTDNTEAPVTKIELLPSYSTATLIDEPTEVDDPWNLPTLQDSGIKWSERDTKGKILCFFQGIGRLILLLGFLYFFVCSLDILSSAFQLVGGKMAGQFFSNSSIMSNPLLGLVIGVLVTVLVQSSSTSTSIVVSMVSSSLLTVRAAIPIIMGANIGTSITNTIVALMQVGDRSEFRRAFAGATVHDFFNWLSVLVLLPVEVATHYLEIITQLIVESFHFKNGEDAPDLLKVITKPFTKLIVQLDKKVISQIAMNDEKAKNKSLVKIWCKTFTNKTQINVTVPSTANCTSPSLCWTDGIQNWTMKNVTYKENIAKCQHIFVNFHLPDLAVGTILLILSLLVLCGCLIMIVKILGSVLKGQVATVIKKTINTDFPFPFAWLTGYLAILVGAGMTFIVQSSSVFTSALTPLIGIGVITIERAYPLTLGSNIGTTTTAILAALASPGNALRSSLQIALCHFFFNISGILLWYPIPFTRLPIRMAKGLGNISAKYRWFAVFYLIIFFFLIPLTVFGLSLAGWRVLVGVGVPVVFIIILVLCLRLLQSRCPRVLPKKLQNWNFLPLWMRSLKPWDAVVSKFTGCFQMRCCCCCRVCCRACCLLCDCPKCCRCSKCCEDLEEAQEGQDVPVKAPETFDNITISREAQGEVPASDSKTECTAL
The experiment in a line: flow cytometry on HEK293-6e cells transfected with human NaPi2b.
Experimental: as §1

The target of assay [3] is T2, human sodium-dependent phosphate …. Put plainly: cell-based or functional assay.
Assay [4] has the same target. The experiment in a line: flow cytometry on OVCAR-3 cells, 24 h at 4 C, anti-human IgG Fc AF647.
Experimental: (§2) Following incubation and washing, fluorescence was detected by flow cytometry on a BD LSRFortessa™ Cell Analyzer (BD Biosciences, Franklin Lake, NJ) with 1,000 minimum events collected per well.
Assay [5] shares this target. The experiment in a line: flow cytometry on IGROV-1 cells, 24 h at 4 C, anti-human IgG Fc AF647.
Experimental: as §2
Assay [6] has as its target T3, cynomolgus monkey NaPi2b (cynomolgus monkey, UniProt O95436 1-690 (human entry)).
T3 construct: Transfected into HEK293-6e cells (clone CL_#13433); also called Cy NaPi2b; Cyno NaPi2b
T3 chain: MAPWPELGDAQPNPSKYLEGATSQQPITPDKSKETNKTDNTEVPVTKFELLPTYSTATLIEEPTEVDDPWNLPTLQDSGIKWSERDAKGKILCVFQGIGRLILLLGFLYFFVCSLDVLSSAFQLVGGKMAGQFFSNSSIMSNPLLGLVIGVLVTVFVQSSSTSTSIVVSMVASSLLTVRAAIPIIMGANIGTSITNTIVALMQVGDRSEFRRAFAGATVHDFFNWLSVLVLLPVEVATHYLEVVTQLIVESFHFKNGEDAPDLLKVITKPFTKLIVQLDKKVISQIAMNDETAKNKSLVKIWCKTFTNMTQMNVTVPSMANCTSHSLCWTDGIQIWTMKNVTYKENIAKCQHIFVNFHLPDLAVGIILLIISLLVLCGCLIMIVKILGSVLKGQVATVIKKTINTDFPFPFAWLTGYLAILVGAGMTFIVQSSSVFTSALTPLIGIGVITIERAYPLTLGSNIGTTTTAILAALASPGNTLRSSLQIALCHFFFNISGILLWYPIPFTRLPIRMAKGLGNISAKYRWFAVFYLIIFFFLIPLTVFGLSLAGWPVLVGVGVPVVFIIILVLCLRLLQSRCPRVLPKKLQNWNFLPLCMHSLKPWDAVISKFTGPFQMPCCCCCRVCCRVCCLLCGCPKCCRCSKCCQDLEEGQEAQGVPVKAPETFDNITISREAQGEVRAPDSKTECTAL
Put plainly: flow cytometry on HEK293-6e cells transfected with cynomolgus NaPi2b, apparent Kd.
Experimental: as §1

For assay [7], the target named is T3, cynomolgus monkey NaPi2b. Put plainly: flow cytometry on HEK293-6e cells transfected with cynomolgus NaPi2b.
Experimental: as §1
Assay [8] has as its target T1, mouse NaPi2b. The experiment in a line: flow cytometry on HEK293-6e cells transfected with mouse NaPi2b.
Experimental: as §1
In assay [9] the target is T2, human sodium-dependent phosphate …. Put plainly: flow cytometry on HEK293-6e cells transfected with human NaPi2b. The source holds these as a separate data set.
Experimental: as §1
Assay [10] has the same target. Put plainly: cell-based or functional assay. This is another data set of the same source.
Assay [11] shares this target. The experiment in a line: cell-based or functional assay. This is another data set of the same source.
Assay [12] has the same target. Put plainly: cell-based or functional assay. This is another data set of the same source.
Assay [13] deals with T4, human sodium-dependent phosphate transporter 2B (NaPi2b) (human, UniProt O95436 1-690).
T4 construct: UniProt ID is given as 095436 [sic]; also called hNaPi2b; Hu NaPi2b
T4 sequence: T2 sequence
The experiment in a line: flow cytometry on IGROV-1 cells (endogenous NaPi2b), 24 h at 4 C, anti-human IgG Fc AF647, APC-A GeoMean.
Experimental: (§3) Cells were maintained under standard culture conditions (37° C./5% CO₂) until assay set-up. […] Cells were removed from culture vessels using Cell Dissociation Buffer (Invitrogen, Waltham, MA), seeded at 50,000 cells/well in conical-bottom 96-well plates, and treated with test antibody or antibody-drug conjugate for 24 hours at 4° C. to prevent internalization. […] Following incubation and washing, fluorescence was detected by flow cytometry on a BD LSRFortessa™ Cell Analyzer (BD Biosciences, Franklin Lake, NJ) with 1,000 minimum events collected per well.

Assay [14] concerns the target T4, human sodium-dependent phosphate …. Put plainly: flow cytometry on HCC-78 cells (endogenous NaPi2b), 24 h at 4 C, anti-human IgG Fc AF647, APC-A GeoMean.
Experimental: as §3
For assay [15] the target is unchanged. Put plainly: flow cytometry on H441 cells (endogenous NaPi2b), 24 h at 4 C, anti-human IgG Fc AF647, APC-A GeoMean.
Experimental: as §3
Assay [16] addresses T2, human sodium-dependent phosphate …. Put plainly: cell-based or functional assay. This is another data set of the same source.

Where two headings read alike, the source gives them in different places.

B1: v38591-MC-GGFG-AM-Compound 139 DAR 8 (antibody, human IgG1, kappa)
heavy: not shown
light: DVQMTQSPSSLSASVGDRVTITCRASQDVYSYLNWYQQKPGKAVKLLIYYTSRLQSGVPSRFSGSGSGTDYTLTISSLQPEDFATYYCQQYNIFPWTFGQGTKLEIKRTVAAPSVFIFPPSDEQLKSGTASVVCLLNNFYPREAKVQWKVDNALQSGNSQESVTEQDSKDSTYSLSSTLTLSKADYEKHKVYACEVTHQGLSSPVTKSFNRGEC
modifications: drug-linker MC-GGFG-AM-Compound 139 on cysteine thiols after TCEP reduction, positions not given; DAR 8 for the whole antibody
notes: Antibody-drug conjugate of v38591 (IgG1/kappa); also called v38593
For the molecule B1, the Kd in the assay with mouse NaPi2b [1] amounted to 0.64 nM; in assay [4], 2.71 nM; in [5], 1.6 nM; with cynomolgus monkey NaPi2b [6], 0.47 nM. In addition, the Bmax in assay [2] was 1530; in assay [4] it was 14300; in assay [5], 20500; with cynomolgus monkey NaPi2b [7], 408; with mouse NaPi2b [8], 396; in [9], 1530. For the same molecule, the “Internalized Fluorescence in OVCAR-3, 15 min, 100 nM” value in assay [3] stood at 7380. In addition, the “Internalized Fluorescence in OVCAR-3, 4 hr, 100 nM” value in [3] came out at 15600. Moreover, the “Internalized Fluorescence in OVCAR-3, 16 hr, 100 nM” value in assay [3] was 16800. Further, the “Internalized Fluorescence in OVCAR-3, 24 hr, 100 nM” value in assay [3] worked out at 26700.

B2: v29456-MC-GGFG-AM-Compound 139 DAR 8 (antibody, human IgG1, kappa)
heavy: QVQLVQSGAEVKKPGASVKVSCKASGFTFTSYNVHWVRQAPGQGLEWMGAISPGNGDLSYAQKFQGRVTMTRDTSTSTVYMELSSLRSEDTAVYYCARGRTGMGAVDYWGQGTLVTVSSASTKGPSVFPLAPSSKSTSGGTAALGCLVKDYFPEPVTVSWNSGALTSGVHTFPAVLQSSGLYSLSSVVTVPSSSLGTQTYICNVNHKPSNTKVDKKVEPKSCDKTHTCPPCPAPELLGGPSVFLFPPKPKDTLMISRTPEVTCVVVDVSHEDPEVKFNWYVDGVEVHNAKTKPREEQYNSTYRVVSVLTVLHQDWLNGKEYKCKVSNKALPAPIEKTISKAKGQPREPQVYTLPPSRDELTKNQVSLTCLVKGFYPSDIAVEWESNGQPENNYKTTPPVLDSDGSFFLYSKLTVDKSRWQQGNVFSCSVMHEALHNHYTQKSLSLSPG
light: B1 light
modifications: drug-linker MC-GGFG-AM-Compound 139 on cysteine thiols after TCEP reduction, positions not given; DAR 8.0 for the whole antibody
As for B2, in assay [10], the “EC50, in vitro cytotoxicity, H441 spheroids” value stood at 1.57 nM; the “EC50, in vitro cytotoxicity, IGROV-1 spheroids” value was found to be 0.55 nM; the “EC50, in vitro cytotoxicity, TOV-21G spheroids” value worked out at 0.54 nM. Moreover, in assay [11], the “EC50, in vitro cytotoxicity, 2D monolayer, IGROV-1” value amounted to 0.39 nM and the “EC50, in vitro cytotoxicity, 2D monolayer, TOV-21G” value turned out to be 4.3 nM. In [12], the “EC50, in vitro cytotoxicity, IGROV-1 spheroids” value was determined as 0.31 nM and the “EC50, in vitro cytotoxicity, TOV-21G:HDFa (1:1) spheroids” value was 0.24 nM.

B3: v38591-MC-GGFG-AM-Compound 139 DAR 4 (antibody, human IgG1, kappa)
heavy: not shown
light: B1 light
modifications: drug-linker MC-GGFG-AM-Compound 139 on cysteine thiols after TCEP reduction, positions not given; DAR 4 for the whole antibody
notes: Antibody-drug conjugate of v38591 (IgG1/kappa)
Consider B3, for which the Kd came to 1.49 nM with mouse NaPi2b [1], 2.52 nM in [4], 1.7 nM in [5] and 0.36 nM with cynomolgus monkey NaPi2b [6]. In addition, the Bmax in assay [2] was 1260; in [4], 15500; in [5], 22700; in the assay with cynomolgus monkey NaPi2b [7] it was 459; with mouse NaPi2b [8] it was 538; in assay [9] it was 1260.

B4: v40502 (LALADS)-MC-GGFG-AM-Compound 139 DAR 4 (antibody, human IgG1, kappa, L234A L235A)
heavy: not shown
light: B1 light
modifications: as above; MC-GGFG-AM-Compound 139 drug-linker on cysteines freed by TCEP reduction; sites not stated; DAR 4
notes: Antibody-drug conjugate of v40502
B4: the “EC50 (read off the curve)” value in assay [13] is roughly 2 nM; in [14] it was roughly 3 nM; in assay [15], roughly 0.6 nM.

B5: v22277 (palivizumab) (antibody, human IgG1, kappa)
heavy 1: GQVTLRESGPALVKPTQTLTLTCTFSGFSLSTSGMSVGWIRQPPGKALEWLADIWWDDKKDYNPSLKSRLTISKDTSKNQVVLKVTNMDPADTATYYCARSMITNWYFDVWGAGTTVTVSSASTKGPSVFPLAPSSKSTSGGTAALGCLVKDYFPEPVTVSWNSGALTSGVHTFPAVLQSSGLYSLSSVVTVPSSSLGTQTYICNVNHKPSNTKVDKKVEPKSCDKTHTCPPCPAPELLGGPSVFLFPPKPKDTLMISRTPEVTCVVVDVSHEDPEVKFNWYVDGVEVHNAKTKPREEQYNSTYRVVSVLTVLHQDWLNGKEYKCKVSNKALPAPIEKTISKAKGQPREPQVYVYPPSRDELTKNQVSLTCLVKGFYPSDIAVEWESNGQPENNYKTTPPVLDSDGSFALVSKLTVDKSRWQQGNVFSCSVMHEALHNHYTQKSLSLSPG
heavy 2: not shown
light: GDIQMTQSPSTLSASVGDRVTITCKSQLSVGYMHWYQQKPGKAPKLLIYDTSKLASGVPSRFSGSGSGTEFTLTISSLQPDDFATYYCFQGSGYPFTFGGGTKLEIKRTVAAPSVFIFPPSDEQLKSGTASVVCLLNNFYPREAKVQWKVDNALQSGNSQESVTEQDSKDSTYSLSSTLTLSKADYEKHKVYACEVTHQGLSSPVTKSFNRGEC
On to B5, for which, in assay [16], the “Internalized Fluorescence Fold-Over Palivizumab, IGROV-1, 4 hrs, 10 nM” value came out at 1 fold; the “Internalized Fluorescence Fold-Over Palivizumab, OVCAR-3, 4 hrs, 10 nM” value is 1 fold; the “Internalized Fluorescence Fold-Over Palivizumab, OVCAR-3, 24 hrs, 10 nM” value is 1 fold.
